According to publication PMC12449476, “Transient ligand contacts of the intrinsically disordered N-terminus of neuropeptide Y2 receptor regulate arrestin-3 recruitment” (Nature Communications, 2025):
Changes are numbered by the printed parent chain.

Columns and labels:
WT Nluc-Y2R-eYFP = target: T1, WT Nluc-Y2R-eYFP (Homo sapiens, UniProt P49146); test: NanoBRET equilibrium ligand binding
T1 construct: expressed in transfected cells; host or cells: membrane preparations of transiently transfected HEK293
T1 sequence (P49146 1-381): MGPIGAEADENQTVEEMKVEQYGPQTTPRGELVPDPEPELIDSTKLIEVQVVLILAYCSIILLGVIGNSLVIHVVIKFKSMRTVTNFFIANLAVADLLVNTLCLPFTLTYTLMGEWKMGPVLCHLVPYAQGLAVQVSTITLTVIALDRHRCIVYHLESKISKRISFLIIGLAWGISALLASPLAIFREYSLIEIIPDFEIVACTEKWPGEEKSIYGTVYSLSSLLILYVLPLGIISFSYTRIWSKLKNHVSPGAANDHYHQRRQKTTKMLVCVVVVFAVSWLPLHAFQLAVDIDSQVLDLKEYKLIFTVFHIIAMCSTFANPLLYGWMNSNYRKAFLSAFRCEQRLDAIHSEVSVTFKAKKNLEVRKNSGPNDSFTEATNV
Protocol: Briefly, for each data point, membranes containing 0.03 μg total protein were suspended in ice-cold BRET binding buffer (Hank’s balanced salt solution (HBSS) containing 20 mM HEPES (pH 7.4), 0.1% bovine serum albumin (BSA)). The assay was performed in solid black 96-WP with a total assay volume of 100 μL in technical duplicate or triplicate. […] Raw BRET was calculated as the ratio of fluorescence to luminescence, and the background value of the unspecific binding controls was subtracted to obtain the netBRET signal.

Nluc-Y2R-eYFP Δ2-41 [1] = target: T2, Nluc-Y2R-eYFP Δ2-41 (Homo sapiens, UniProt P49146); test: NanoBRET equilibrium ligand binding
T2 construct: expressed in transfected cells; host or cells: membrane preparations of transiently transfected HEK293
T2 sequence (P49146 with tags, fused parts or gaps): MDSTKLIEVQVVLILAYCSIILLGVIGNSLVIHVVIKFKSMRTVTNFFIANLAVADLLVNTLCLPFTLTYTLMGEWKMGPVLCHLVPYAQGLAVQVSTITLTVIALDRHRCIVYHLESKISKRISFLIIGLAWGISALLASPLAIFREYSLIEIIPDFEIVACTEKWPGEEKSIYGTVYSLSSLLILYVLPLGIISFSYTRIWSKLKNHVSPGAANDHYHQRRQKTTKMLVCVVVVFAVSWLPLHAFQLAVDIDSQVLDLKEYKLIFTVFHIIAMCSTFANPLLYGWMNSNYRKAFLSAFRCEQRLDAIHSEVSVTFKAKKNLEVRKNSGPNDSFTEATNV
Protocol: (§1) Briefly, for each data point, membranes containing 0.03 μg total protein were suspended in ice-cold BRET binding buffer (Hank’s balanced salt solution (HBSS) containing 20 mM HEPES (pH 7.4), 0.1% bovine serum albumin (BSA)). The assay was performed in solid black 96-WP with a total assay volume of 100 μL in technical duplicate or triplicate. […] To determine unspecific binding, 100 µM of the Y2R antagonist JNJ-31020028 (Selleck Europe) were added to each well. […] To start the dissociation measurement, the antagonist JNJ-31020028 was added to a final concentration of 50 µM (20 µL) using the built-in injector system of the plate reader and the BRET decay was measured for 20 min. Raw BRET was calculated as the ratio of fluorescence to luminescence, and the background value of the unspecific binding controls was subtracted to obtain the netBRET signal.

Nluc-Y2R-eYFP D/E35-39K = target: T3, Nluc-Y2R-eYFP D/E35-39K (Homo sapiens, UniProt P49146, D35K/E37K/E39K); test: NanoBRET ligand dissociation; assay type: binding; conditions: koff, charge reversal in the acidic patches
T3 construct: expressed in transfected cells; host or cells: HEK293, transiently transfected, membrane preparations
T3 sequence (P49146 1-381 D35K/E37K/E39K): T1 sequence (P49146 1-381) with D35K, E37K, E39K
Protocol: as §1

Nluc-Y2R-eYFP E15-20K = target: T4, Nluc-Y2R-eYFP E15-20K (Homo sapiens, UniProt P49146, E15K/E16K/E20K); test: NanoBRET ligand dissociation; assay type: binding; conditions: koff, charge reversal in the acidic patches
T4 construct: expressed in transfected cells; host or cells: membrane preparations of transiently transfected HEK293
T4 sequence (P49146 1-381 E15K/E16K/E20K): T1 sequence (P49146 1-381) with E15K, E16K, E20K
Protocol: as §1

Nluc-Y2R-eYFP Δ2-41 [2] = target: T2, Nluc-Y2R-eYFP Δ2-41; test: NanoBRET ligand dissociation; assay type: binding; conditions: koff
Protocol: as §1

K18-Tamra-NPY: tetramethylrhodamine(Tamra)-labeled peptide (K^18-Tamra-NPY)
BRETmax (WT Nluc-Y2R-eYFP; HEK293 membranes, 10 min RT, mean, 95% CI 0.0273 to 0.0311): 0.0292
Fraction high affinity (WT Nluc-Y2R-eYFP; mean, 95% CI 0.0352 to 0.0881): 0.0617
KD, high replicates (log) (WT Nluc-Y2R-eYFP; replicate 1): -9.88
KD, low replicates (log) (WT Nluc-Y2R-eYFP; replicate 1): -6.52
KD, high replicates (log) (WT Nluc-Y2R-eYFP; replicate 2): -9.40
KD, low replicates (log) (WT Nluc-Y2R-eYFP; replicate 2): -6.56
KD, high replicates (log) (WT Nluc-Y2R-eYFP; replicate 3): -9.43
KD, low replicates (log) (WT Nluc-Y2R-eYFP; replicate 3): -6.54
BRETmax (Nluc-Y2R-eYFP Δ2-41 [1]; HEK293 membranes, 10 min RT, mean, 95% CI 0.5907 to 0.7133, P<0.0001 vs WT): 0.6520
Low-affinity binding constant reduction vs wild-type (Nluc-Y2R-eYFP Δ2-41 [1]; NanoBRET, HEK293 membranes): about two-fold reduced
Fraction high affinity (Nluc-Y2R-eYFP Δ2-41 [1]; mean, 95% CI 0.0357 to 0.0467): 0.0412
KD, high replicates (log) (Nluc-Y2R-eYFP Δ2-41 [1]; replicate 1): -9.51
KD, low replicates (log) (Nluc-Y2R-eYFP Δ2-41 [1]; replicate 1): -6.16
KD, high replicates (log) (Nluc-Y2R-eYFP Δ2-41 [1]; replicate 2): -9.76
KD, low replicates (log) (Nluc-Y2R-eYFP Δ2-41 [1]; replicate 2): -6.18
KD, high replicates (log) (Nluc-Y2R-eYFP Δ2-41 [1]; replicate 3): -9.64
KD, low replicates (log) (Nluc-Y2R-eYFP Δ2-41 [1]; replicate 3): -6.21
Increase of ligand dissociation vs wild-type (Nluc-Y2R-eYFP D/E35-39K): two to three-fold
Increase of ligand dissociation vs wild-type (Nluc-Y2R-eYFP E15-20K): two to three-fold
Increase of ligand dissociation vs wild-type (Nluc-Y2R-eYFP Δ2-41 [2]): two to three-fold
